Data from patent US7977317B2, “Compositions and methods for modulating blood-brain barrier transport” (Raptor Pharmaceutical Inc., priority 2001, dated 2011).

System: human brain capillaries
Assay: Accumulation/uptake of [125I]-p97 in isolated human brain capillaries
Assay type: binding
Conditions: for Inhibition of [125I]-p97 binding/accumulation in human brain capillaries: competitor 5 micromolar, 100 nM p97, 1 h at 37° C. (FIG. 5)
Method: FIG. 5. Accumulation of p97 in human brain capillaries. Accumulation of [^125I]-p97 was measured at 37° C. for 1 h in isolated human brain capillaries (100 μg/assay). The incubation medium contained [^125I]-p97 and a final concentration of 100 nM p97 in Ringer/Hepes solution. The accumulation of [^125I]-p97 was performed in the presence or absence of 5 μm cold-p97, holo-transferrin or lactoferrin. […] The suspension was filtered under vacuum through a […] pore size Millipore filter. The filter was rinsed with 8 ml of stop solution, and the radioactivity was counted. Nonspecific binding of the radioactivity to the capillaries was determined by the addition of the ice-cold stop solution to the capillaries before adding the incubation medium. This value was subtracted from accumulation values obtained following an 1 h incubation. The results were expressed as ng of [^125I]-p97 accumulated per μg of brain capillaries.
FIG. 16 illustrates the identification of a p97 receptor according to ligand specificity. FIG. 16a, Uptake of [^125I]-p97 into human brain capillaries. The uptake of [^125I]-p97 at 100 nM (control) into isolated human brain capillaries was measured for 1 h at 37° C. in the presence of a 50-fold molar excess of unlabelled p97, human holo-transferrin or human lactoferrin. (*[…] Student's t-test (n=5); FIG. 16b, Effect of RAP on [^125I]-p97 transcytosis across BBCEC monolayers. Apical-to-basal transport of [^125I]-p97 was measured in the presence (closed circles) or absence (open circles) of RAP (25 μg/ml) (n=5); FIG. 16c, Inhibition of bovine [^125I]-lactoferrin transport by p97. Transcytosis of bovine [^125I]-lactoferrin (50 nM) was measured in the presence (closed circles) or absence (open circles) of unlabelled p97 (5 μM) at 37° C. (n=3).
A. Isolation of human brain capillaries. […]
B. p97 accumulation in human brain capillaries. […] Accumulation of [^125I]-p97 was measured at 37° C. for 1 h in isolated human brain capillaries (100 μg/assay). […]

B1: p97: recombinant human melanotransferrin (p97), provided by Synapse Technologies (protein, UniProt P08582 20-709, looked up)
Melanotransferrin: GMEVRWCATSDPEQHKCGNMSEAFREAGIQPSLLCVRGTSADHCVQLIAAQEADAITLDGGAIYEAGKEHGLKPVVGEVYDQEVGTSYYAVAVVRRSSHVTIDTLKGVKSCHTGINRTVGWNVPVGYLVESGRLSVMGCDVLKAVSDYFGGSCVPGAGETSYSESLCRLCRGDSSGEGVCDKSPLERYYDYSGAFRCLAEGAGDVAFVKHSTVLENTDGKTLPSWGQALLSQDFELLCRDGSRADVTEWRQCHLARVPAHAVVVRADTDGGLIFRLLNEGQRLFSHEGSSFQMFSSEAYGQKDLLFKDSTSELVPIATQTYEAWLGHEYLHAMKGLLCDPNRLPPYLRWCVLSTPEIQKCGDMAVAFRRQRLKPEIQCVSAKSPQHCMERIQAEQVDAVTLSGEDIYTAGKTYGLVPAAGEHYAPEDSSNSYYVVAVVRRDSSHAFTLDELRGKRSCHAGFGSPAGWDVPVGALIQRGFIRPKDCDVLTAVSEFFNASCVPVNNPKNYPSSLCALCVGDEQGRNKCVGNSQERYYGYRGAFRCLVENAGDVAFVRHTTVFDNTNGHNSEPWAAELRSEDYELLCPNGARAEVSQFAACNLAQIPPHAVMVRPDTNIFTVYGLLDKAQDLFGDDHNKNGFKMFDSSNYHGQDLLFKDATVRAVPVGEKTTYRGWLGLDYVAALEGMSSQQC
Inhibition of [125I]-p97 binding/accumulation in human brain capillaries: significantly inhibits

B2: lactoferrin: lactoferrin (Lf), LRP ligand used as competitor (protein, UniProt P02788 20-710, looked up)
Lactotransferrin: GRRRSVQWCAVSQPEATKCFQWQRNMRKVRGPPVSCIKRDSPIQCIQAIAENRADAVTLDGGFIYEAGLAPYKLRPVAAEVYGTERQPRTHYYAVAVVKKGGSFQLNELQGLKSCHTGLRRTAGWNVPIGTLRPFLNWTGPPEPIEAAVARFFSASCVPGADKGQFPNLCRLCAGTGENKCAFSSQEPYFSYSGAFKCLRDGAGDVAFIRESTVFEDLSDEAERDEYELLCPDNTRKPVDKFKDCHLARVPSHAVVARSVNGKEDAIWNLLRQAQEKFGKDKSPKFQLFGSPSGQKDLLFKDSAIGFSRVPPRIDSGLYLGSGYFTAIQNLRKSEEEVAARRARVVWCAVGEQELRKCNQWSGLSEGSVTCSSASTTEDCIALVLKGEADAMSLDGGYVYTAGKCGLVPVLAENYKSQQSSDPDPNCVDRPVEGYLAVAVVRRSDTSLTWNSVKGKKSCHTAVDRTAGWNIPMGLLFNQTGSCKFDEYFSQSCAPGSDPRSNLCALCIGDEQGENKCVPNSNERYYGYTGAFRCLAENAGDVAFVKDVTVLQNTDGNNNEAWAKDLKLADFALLCLDGKRKPVTEARSCHLAMAPNHAVVSRMDKVERLKQVLLHQQAKFGRNGSDCPDKFCLFQSETKNLLFNDNTECLARLHGKTTYEKYLGPQYVAGITNLKKCSTSPLLEACEFLRK
Inhibition of [125I]-p97 binding/accumulation in human brain capillaries: significantly inhibits | Competition with p97 for receptor binding in human brain capillaries, repeat experiment (performed identically to FIG. 5 (FIG. 6)): competes
